Four molecules from PMC11696179, “Molecular condensation of the CO/NF-YB/NF-YC/FT complex gates floral transition in Arabidopsis” (The EMBO Journal, 2024) can be followed below.

The labels stand for the following.
B1: mCherry-CO (CONSTANS), recombinant (natural protein)
chain: MLKQESNDIGSGENNRARPCDTCRSNACTVYCHADSAYLCMSCDAQVHSANRVASRHKRVRVCESCERAPAAFLCEADDASLCTACDSEVHSANPLARRHQRVPILPISGNSFSSMTTTHHQSEKTMTDPEKRLVVDQEEGEEGDKDAKEVASWLFPNSDKNNNNQNNGLLFSDEYLNLVDYNSSMDYKFTGEYSQHQQNCSVPQTSYGGDRVVPLKLEESRGHQCHNQQNFQFNIKYGSSGTHYNDNGSINHNAYISSMETGVVPESTACVTTASHPRTPKGTVEQQPDPASQMITVTQLSPMDREARVLRYREKRKTRKFEKTIRYASRKAYAEIRPRVNGRFAKREIEAEEQGFNTMLMYNTGYGIVPSF
B2: NF-YB2, recombinant (natural protein, Arabidopsis thaliana, UniProt Q9FGJ3 1-190, looked up)
chain: MGDSDRDSGGGQNGNNQNGQSSLSPREQDRFLPIANVSRIMKKALPANAKISKDAKETMQECVSEFISFVTGEASDKCQKEKRKTINGDDLLWAMTTLGFEDYVEPLKVYLQRFREIEGERTGLGRPQTGGEVGEHQRDAVGDGGGFYGGGGGMQYHQHHQFLHQQNHMYGATGGGSDSGGGAASGRTRT
notes: Nuclear Factor-Y subunit B2 (NF-YB2), Arabidopsis thaliana; Unlabelled form, as used in SPR; also called His-NF-YB2; source: E. coli Rosetta pLysS, purified (HisTrap; size exclusion when necessary)
B3: NF-YB2, recombinant, labelled with Alexa Fluor 647 (natural protein, Arabidopsis thaliana, UniProt Q9FGJ3 1-190, looked up)
chain: B2 chain
modifications: Alexa Fluor 647 label (site not stated)
notes: Nuclear Factor-Y subunit B2 (NF-YB2), Arabidopsis thaliana; Same construct as m3, with the dye, as used for TIRF single-particle imaging; also called NF-YB2 (labeled by Alexa fluor 647); NF-YB2 with Alex647; source: E. coli Rosetta pLysS, purified (HisTrap; size exclusion when necessary)
B4: NF-YC9-GFP, recombinant (natural protein, Arabidopsis thaliana, UniProt Q8L4B2 1-231, looked up)
chain: MDQQDHGQSGAMNYGTNPYQTNPMSTTAATVAGGAAQPGQLAFHQIHQQQQQQQLAQQLQAFWENQFKEIEKTTDFKNHSLPLARIKKIMKADEDVRMISAEAPVVFARACEMFILELTLRSWNHTEENKRRTLQKNDIAAAVTRTDIFDFLVDIVPREDLRDEVLGSIPRGTVPEAAAAGYPYGYLPAGTAPIGNPGMVMGNPGGAYPPNPYMGQPMWQQQAPDQPDQEN
notes: Nuclear Factor-Y subunit C9 (NF-YC9), Arabidopsis thaliana; No tag cleavage step is described; also called MBP-NF-YC9-GFP; source: E. coli Rosetta pLysS, purified (HisTrap; size exclusion when necessary); not shown: GFP, C-terminal, kept

Data set [1] deals with the molecule itself. The data set is described as follows: SPR; bivalent model, kd1.
Data set [2] has as its target T1, NF-YC9-GFP, recombinant (Arabidopsis thaliana, UniProt Q8L4B2 1-231).
T1 chain: B4 chain
The data set is described as follows: SPR; bivalent model, kd1.

Data set [3] concerns the molecule itself. The data set is described as follows: SPR; bivalent model.
Data set [4] has as its target T1, NF-YC9-GFP, recombinant. Put plainly: SPR; bivalent model.
In data set [5] the target is B1. Put plainly: SPR; bivalent model, kd1.
The target in data set [6] is T2, CO/NF-YC9 mixture (mCherry-CO with NF-YC9-GFP), immobilised together (Arabidopsis thaliana, UniProt Q39057 1-373; Q8L4B2 1-231).
T2 chain 1: B1 chain
T2 chain 2: B4 chain
The data set is described as follows: SPR; bivalent model, kd1.

Data set [7] has as its target B1. Put plainly: SPR; bivalent model.
The target in data set [8] is T2, CO/NF-YC9 mixture (mCherry-CO with …). The data set is described as follows: SPR; bivalent model.
The target of data set [9] is B4. The data set is described as follows: SPR; Biacore T200, 25 °C; CO, NF-YC9 or a CO/NF-YC9 mixture (4:1) amine-coupled to a CM5 chip (1000-2000 RU); analytes NF-YB2, CO, NF-YC9 in twofold dilutions; HBST (10 mM HEPES, 150 mM NaCl, 3 mM EDTA, 0.05% Tween 20, pH 7.4); bivalent analyte model. The settings on record: both partners purified.
Data set [10] deals with T3, mCherry-CO (CONSTANS), recombinant (Arabidopsis thaliana, UniProt Q39057 1-373).
T3 construct: CONSTANS (CO), Arabidopsis thaliana; No tag cleavage step is described; also called SUMO-mCherry-CO; source: E. coli Rosetta pLysS, purified (HisTrap; size exclusion when necessary); not shown: mCherry, N-terminal, kept
T3 sequence (looked up): B1 chain
The data set is described as above. Particulars: both partners purified.

Data set [11] addresses B4. Put plainly: single-particle colocalisation by TIRF microscopy; 10 nM of each of two recombinant proteins mixed in 20 mM HEPES, 150 mM NaCl, pH 7.4 for 5 min, put on cover glass. The settings on record: both partners purified.
In data set [12] the target is T3, mCherry-CO (CONSTANS), recombinant. Described as above. Particulars: both partners purified.
Data set [13] deals with the molecule itself. Put plainly: SPR; Biacore T200, 25 °C; CO, NF-YC9 or a CO/NF-YC9 mixture (4:1) amine-coupled to a CM5 chip (1000-2000 RU); analytes NF-YB2, CO, NF-YC9 in twofold dilutions; HBST (10 mM HEPES, 150 mM NaCl, 3 mM EDTA, 0.05% Tween 20, pH 7.4); bivalent analyte model.

With B1, the koff in data set [1] turned out to be 0.0014 s⁻¹; in data set [2] it was 0.00138 s⁻¹. Besides, the values for the Kd in data set [3] and in data set [4] were 53.8 nM and 53.6 nM, respectively.

As for B2, the off-rate (koff) in [1] was found to be 0.00137 s⁻¹; in data set [2], 0.00173 s⁻¹; in data set [5], 0.00202 s⁻¹; in [6] it was 0.00139 s⁻¹. Further, the Kd in data set [3] is 23.7 nM; in [4], 41.6 nM; in data set [7] it was 100 nM; in [8] it was 40.6 nM. Further, the binding result in data set [9] and in [10] was “binds” throughout.

Regarding B3, the binding result in [11] and in data set [12] was “binds” throughout.

In [1], B4 came in with a koff of 0.0017 s⁻¹. The binding result in data set [12] and in [13] was “binds” each time. This molecule also displayed a Kd in data set [3] of 27.8 nM.
